Paper PMC9923440

Target: SARS-CoV-2 spike protein ectodomain mutant S12AAA (L1145A-F1148A-L1152A) (SARS-CoV-2), P0DTC2
Experiment: pull-down
Conditions: remark: other sources report otherwise

B1: resistance to inhibitor of cholinesterase-3 (RIC3), Q7Z5B4 29-369 (natural protein)
chain: SRGKRQEPPPTPEGKLGRFPPMMHHHQAPSDGQTPGARFQRSHLAEAFAKAKGSGGGAGGGGSGRGLMGQIIPIYGFGIFLYILYILFKLSKGKTTAEDGKCYTAMPGNTHRKITSFELAQLQEKLKETEAAMEKLINRVGPNGESRAQTVTSDQEKRLLHQLREITRVMKEGKFIDRFSPEKEAEEAPYMEDWEGYPEETYPIYDLSDCIKRRQETILVDYPDPKELSAEEIAERMGMIEEEESDHLGWESLPTDPRAQEDNSVTSCDPKPETCSCCFHEDEDPAVLAENAGFSADSYPEQEETTKEEWSQDFKDEGLGISTDKAYTGSMLRKRNPQGLE
Work on B1 yielded a decrease in RIC3 binding vs S12 of 67%.
